# Paper PMC10380293 (International Journal of Molecular Sciences, 2023)
# Several values for one entry are separate records, joined by “and”; a condition that tells them apart may be missing. Identical values can stand only once.
# B1: p15-mNeonGreen (natural protein, UniProt Q15004 1-111, looked up)
# chain: MVRTKADSVPGTYRKVVAARAPRKVLGSSTSATNSTSVSSRKAENKYAGGNPVCVRPTPKWQKGIGEFFRLSPKDSEKENQIPEEAGSSGLGKAKRKACPLQPDHTNDEKE
# Columns and labels:
# mScarlet-I-PCNA = mScarlet-I-PCNA (human, UniProt P12004 1-261); assay: FRET or BRET; competition: 1 µM p15-mNeonGreen and 1 µM mScarlet-I-PCNA with varying inhibitor (0-100 µM p15^51-70, 0-20 µM unlabeled PCNA), 1 h at 37 °C, PBS with 1 mM DTT; sensitized emission; Ki by the Cheng-Prusoff equation; details: both partners purified
# mScarlet-I-PCNA, sequence (P12004 whole entry): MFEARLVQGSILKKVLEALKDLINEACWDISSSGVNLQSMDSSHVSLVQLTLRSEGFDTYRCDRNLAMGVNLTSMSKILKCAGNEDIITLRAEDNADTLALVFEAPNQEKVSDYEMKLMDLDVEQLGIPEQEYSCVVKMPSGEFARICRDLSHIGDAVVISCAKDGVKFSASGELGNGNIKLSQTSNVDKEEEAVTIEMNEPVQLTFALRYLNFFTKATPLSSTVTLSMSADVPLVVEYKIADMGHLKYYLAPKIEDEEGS
# mScarlet-I-PCNA^C148S = mScarlet-I-PCNA^C148S (human, UniProt P12004 1-261, C148S); assay: FRET or BRET; 1 µM p15-mNeonGreen (donor) with 0-3.09 µM mScarlet-I-PCNA (acceptor, protomer concentration) in PBS with 1 mM DTT, 37 °C for 1 h, 384 well plate; sensitized emission by the three-channel method, control mNeonGreen/mScarlet-I-PCNA subtracted; apparent for C148S; details: both partners purified
# mScarlet-I-PCNA^C148S, sequence (P12004 whole entry C148S): as the sequence (P12004 whole entry) above, with C148S counted along it
Binder,IC50 (mScarlet-I-PCNA) [µM],Ki (mScarlet-I-PCNA),Kd (mScarlet-I-PCNA^C148S) [µM]
NPVCVRPTPKWQKGIGEFFR [peptide p15^51–70],9.81,2.94 µM and 2.99 µM,–
B1,–,–,3.09
